Reference: US7629443

Experiments:
[1] = molecular target: RBD-Fc (SARS-CoV; human) (UniProt P59594); assay: competitive ELISA on coated RBD-Fc; competitor: biotinylated 33G4
[2] = molecular target: RBD-Fc (SARS-CoV; human) (UniProt P59594); assay: competitive ELISA on coated RBD-Fc; competitor: biotinylated 45B5
[3] = molecular target: SARS-CoV S protein on SARS pseudovirus (SARS-CoV) (UniProt P59594); assay: cell-based or functional assay
[4] = molecular target: RBD-Fc (SARS-CoV; human) (UniProt P59594); assay: competitive ELISA on coated RBD-Fc; competitor: biotinylated 11E12
[5] = molecular target: RBD-Fc (SARS-CoV; human) (UniProt P59594); assay: competitive ELISA on coated RBD-Fc; competitor: biotinylated 10E7
[6] = molecular target: RBD-Fc (SARS-CoV; human) (UniProt P59594); assay: competitive ELISA on coated RBD-Fc; competitor: biotinylated 17H9
[7] = molecular target: DTT-reduced S1-C9 (SARS-CoV) (UniProt P59594); assay: ELISA, antigen coated 1 µg/ml, mAb 10 µg/ml
[8] = molecular target: RBD-Fc (SARS-CoV; human) (UniProt P59594); assay: ELISA, antigen coated 1 µg/ml, mAb 10 µg/ml
[9] = molecular target: S1-C9 (SARS-CoV) (UniProt P59594); assay: ELISA, antigen coated 1 µg/ml, mAb 10 µg/ml
[10] = molecular target: DTT-reduced RBD-Fc (SARS-CoV; human) (UniProt P59594); assay: ELISA, antigen coated 1 µg/ml, mAb 10 µg/ml

4D5 (antibody)
% inhibition [1]: -11.1% | % inhibition [2]: 1% | ND50, neutralization of SARS pseudovirus infection of 293T/ACE2 cells [3]: > 100 µg/mL | % inhibition [4]: 10.6% | % inhibition [5]: 13% | % inhibition [6]: -10.5% | reactivity (absorbance at 450 nm) [7]: 0.94 | reactivity (absorbance at 450 nm) [8]: 0.88 | reactivity (absorbance at 450 nm) [9]: 0.65 | reactivity (absorbance at 450 nm) [10]: 1.36
